{"source": "patent US8236925", "about": "(UNIVERSITY OF MINNESOTA, dated 2012)", "proteins": {"B1": {"name": "E. coli dihydrofolate reductase (DHFR) (enzyme)", "chain": "MISLIAALAVDRVIGMENAMPWNLPADLAWFKRNTLNKPVIMGRHTWESIGRPLPGRKNIILSSQPGTDDRVTWVKSVDEAIAACGDVPEIMVIGGGRVYEQFLPKAQKLYLTHIDAEVEGDTHFPDYEPDDWESVFSEFHDADAQNSHSYCFEILERR"}}, "molecular_target": "the molecule itself", "data": [{"protein": "B1", "values": [{"measurement": "selectivity of dimerization for E. coli DHFR relative to mouse DHFR", "result": "> 1e+07"}, {"measurement": "ΔG of favorable protein-protein interactions", "result": "≥ -3.1", "unit": "kcal/mol"}]}]}
